{"source": "paper PMC7641770", "about": "“Novel polyadenylylation-dependent neutralization mechanism of the HEPN/MNT toxin/antitoxin system” (Nucleic Acids Research, 2020)", "binders": {"B1": {"name": "HepT toxin (SO_3166) of Shewanella oneidensis, C-terminal His6 tag, polyadenylylated at Y104 by co-produced MntA (natural protein, UniProt Q8ECH6 1-133, looked up)", "chain": "MNDIIINKIATIKRCIKRIQQVYGDGSQFKQDFTLQDSVILNLQRCCEACIDIANHINRQQQLGIPQSSRDSFTLLAQNNLITQPLSDNLKKMVGLRNIAVHDYQELNLDIVVHVVQHHLEDFEQFIDVIKAE", "notes": "also called HEPN toxin; modified HepT"}, "B2": {"name": "HepT Y104A (SO_3166) of Shewanella oneidensis, C-terminal His6 tag (natural protein, UniProt Q8ECH6 1-133, looked up)", "chain": "B1 chain with Y104A", "notes": "also called unmodified HepT^Y104A"}, "B3": {"name": "HepT toxin (SO_3166) of Shewanella oneidensis, C-terminal His6 tag, unmodified (co-produced with an inactive MntA variant) (natural protein, UniProt Q8ECH6 1-133, looked up)", "chain": "B1 chain", "notes": "also called unmodified HepT"}}, "key": {"[1]": {"biological_target": "T1, MntA antitoxin (SO_3165) of Shewanella oneidensis, untagged (Shewanella oneidensis, UniProt Q8ECH7 1-139)", "T1 construct": "also called MNT antitoxin; native MntA", "assay": "pull-down", "details": "partners not purified"}, "crystal structure": {"biological_target": "the molecule itself", "assay": "crystal structure"}, "[2]": {"biological_target": "T1, MntA antitoxin (SO_3165) of Shewanella …", "assay": "crystal structure; co-expressed complex purified (Superdex 200, 20 mM Tris pH 8.0, 150 mM NaCl), sitting drop vapor diffusion at 16°C; (HepT)6-(MntA)2 hetero-octamer", "details": "both partners purified"}, "[3]": {"biological_target": "the molecule itself", "assay": "crystal structure; co-expressed complex purified (Superdex 200, 20 mM Tris pH 8.0, 150 mM NaCl), sitting drop vapor diffusion at 16°C; (HepT)6-(MntA)2 hetero-octamer"}, "[4]": {"biological_target": "MntA D39E,D41E (SO_3165) of Shewanella oneidensis, untagged (Shewanella oneidensis, UniProt Q8ECH7 1-139, D39E | D41E)", "assay": "crystal structure", "details": "both partners purified"}}, "note": "Changes are numbered by the printed parent chain. In names and notes the source's numbering stands."}
{"binder": "B1", "values": [{"measurement": "binding result", "setting": "[1]", "value": "binds"}, {"measurement": "binding result", "setting": "crystal structure", "value": "binds"}]}
{"binder": "B2", "values": [{"measurement": "binding result", "setting": "[2]", "value": "binds"}, {"measurement": "binding result", "setting": "[3]", "value": "binds"}]}
{"binder": "B3", "values": [{"measurement": "binding result", "setting": "[4]", "value": "binds"}]}
